Data set [1] addresses T1, SMAD3 (UniProt P84022 1-425). Description: EMSA; 10 mM HEPES pH 7.9, 10 mM KCl, 1.5 mM MgCl2, 1 mM DTT, 5% glycerol, 20 nM Cy5-DNA, on ice; 6% PAGE at 4 C. The note with it: protein: recombinant; label: 5'-Cy5 on strand 1; blunt.
Data set [2] concerns the target OGG1 (UniProt O15527 1-345). Described as above. The conditions noted are these: protein: commercial; tags: His; label: 5'-Cy5 on strand 1; blunt.
The target of data set [3] is SMAD2 (UniProt Q15796 1-467). In words: EMSA; with OGG1 100 nM, SMAD2 800 nM; shift increased; 10 mM HEPES pH 7.9, 10 mM KCl, 1.5 mM MgCl2, 1 mM DTT, 5% glycerol, 20 nM Cy5-DNA, on ice; 6% PAGE at 4 C. The note with it: protein: recombinant; label: 5'-Cy5 on strand 1; blunt. A general note: A gel shift assay detects complexes by their altered migration in electrophoresis.

Data set [4] concerns the target T1, SMAD3. Description: EMSA; OGG1 + TH2840 (no decrease); 10 mM HEPES pH 7.9, 10 mM KCl, 1.5 mM MgCl2, 1 mM DTT, 5% glycerol, 20 nM Cy5-DNA, on ice; 6% PAGE at 4 C. The note with it: protein: recombinant; label: 5'-Cy5 on strand 1; blunt.

OGG1, sequence (O15527 whole entry): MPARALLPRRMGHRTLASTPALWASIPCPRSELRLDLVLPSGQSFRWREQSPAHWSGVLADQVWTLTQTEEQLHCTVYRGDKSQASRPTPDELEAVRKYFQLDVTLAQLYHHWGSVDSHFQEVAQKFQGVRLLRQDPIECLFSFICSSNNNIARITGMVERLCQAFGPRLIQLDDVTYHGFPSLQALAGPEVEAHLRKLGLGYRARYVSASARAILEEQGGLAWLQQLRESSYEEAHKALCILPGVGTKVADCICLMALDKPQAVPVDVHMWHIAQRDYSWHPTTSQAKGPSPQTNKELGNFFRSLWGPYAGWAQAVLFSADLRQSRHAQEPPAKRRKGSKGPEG
T1 sequence (P84022 whole entry): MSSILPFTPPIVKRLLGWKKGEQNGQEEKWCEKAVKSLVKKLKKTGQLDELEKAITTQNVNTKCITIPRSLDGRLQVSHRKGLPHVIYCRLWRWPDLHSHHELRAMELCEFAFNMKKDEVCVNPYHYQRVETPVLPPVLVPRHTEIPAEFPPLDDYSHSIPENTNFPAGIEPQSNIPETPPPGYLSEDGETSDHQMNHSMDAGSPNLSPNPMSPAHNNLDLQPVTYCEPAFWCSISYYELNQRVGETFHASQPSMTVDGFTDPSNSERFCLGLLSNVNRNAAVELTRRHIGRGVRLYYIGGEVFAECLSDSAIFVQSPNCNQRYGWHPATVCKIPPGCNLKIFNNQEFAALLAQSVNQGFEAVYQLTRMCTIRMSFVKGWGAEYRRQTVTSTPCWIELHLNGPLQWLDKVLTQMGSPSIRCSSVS
SMAD2, sequence (Q15796 whole entry): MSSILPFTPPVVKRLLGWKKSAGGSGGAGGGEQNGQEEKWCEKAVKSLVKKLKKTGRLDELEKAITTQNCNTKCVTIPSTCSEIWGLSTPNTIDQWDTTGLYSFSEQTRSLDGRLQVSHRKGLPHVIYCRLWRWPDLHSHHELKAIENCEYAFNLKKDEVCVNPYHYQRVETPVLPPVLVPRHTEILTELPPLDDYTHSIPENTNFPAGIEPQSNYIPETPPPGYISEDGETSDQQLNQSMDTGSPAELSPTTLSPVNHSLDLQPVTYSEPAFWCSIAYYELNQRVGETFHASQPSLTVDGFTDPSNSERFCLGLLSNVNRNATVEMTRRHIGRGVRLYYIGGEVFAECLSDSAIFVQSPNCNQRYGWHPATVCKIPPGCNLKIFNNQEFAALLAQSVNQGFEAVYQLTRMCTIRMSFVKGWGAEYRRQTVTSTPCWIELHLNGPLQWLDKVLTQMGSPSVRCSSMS

B1: G'1 (dsDNA)
DNA 1: CCCCAGGGTGAGCCCAGCTCAGACTATCATCCGGAAAGCCCCCAAAAGTCCCAGCCC
DNA 2: GGGCTGGGACTTTTGGGGGCTTTCCGGATGATAGTCTGAGCTGGGCTCACCCTGGGG
modifications: 8-oxoG at strand 1 position 6
Take B1: the binding result in data set [1] and in data set [2] was “binds” throughout.

B2: G'3 (dsDNA)
DNA 1: CCCCAGGGTGAGCCCAGCTCAGACTATCATCCGGAAAGCCCCCAAAAGTCCCAGCCC
DNA 2: GGGCTGGGACTTTTGGGGGCTTTCCGGATGATAGTCTGAGCTGGGCTCACCCTGGGG
modifications: 8-oxoG at strand 2 position 43 from its 5' end (opposite strand 1 position 15)
B2: the binding result in data set [3], in data set [4] and in data set [2] was “binds” throughout.

B3: G (dsDNA)
DNA 1: CCCCAGGGTGAGCCCAGCTCAGACTATCATCCGGAAAGCCCCCAAAAGTCCCAGCCC
DNA 2: GGGCTGGGACTTTTGGGGGCTTTCCGGATGATAGTCTGAGCTGGGCTCACCCTGGGG
Take B3: in data set [1], the binding result is “binds”.

B4: G'2 (dsDNA)
DNA 1: CCCCAGGGTGAGCCCAGCTCAGACTATCATCCGGAAAGCCCCCAAAAGTCCCAGCCC
DNA 2: GGGCTGGGACTTTTGGGGGCTTTCCGGATGATAGTCTGAGCTGGGCTCACCCTGGGG
modifications: 8-oxoG at strand 2 position 6 from its 5' end
As for B4, the binding result in data set [1] and in data set [2] was “binds” throughout.
